Consider 73 sequences from the supplement of paper PMC10567573.

± gives the standard deviation.

A short description of this series: protein stability index of a GFP-peptide fusion (GPS, HEK-293T) (PSI 1-6); higher = more stable. The conditions noted are these: c terminus: a fixed tail appended.
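Further: 24-mer peptide tiles fused after GFP, lentivirally expressed, FACS-sorted into six equal bins by GFP/DsRed ratio, decoded by Illumina sequencing, PSI is the read-weighted mean bin number.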

Turning to ESGPSAEKYSVATQLFIGGVTGWC [FUNDC2], the protein stability index stood at 2.14 ± 0.29 (treatment: DMSO) and 1.97 ± 0.38 (treatment: MLN4924 1 uM, 8 h).
With ESITSAGRDDLESFQLEISGFLKE [FAM98B], the protein stability index is, setting by setting: (treatment: DMSO) 3.9 ± 0.26; (treatment: MLN4924 1 uM, 8 h) 4.1 ± 0.28.
The like results for ESKDQGKTLALARTMDIPRSVQNF [ALDH8A1] were, in that order, 4.01 ± 0.15 and 4.18 ± 0.23.
The like results for ESRRQQILREFEELHRRLDEEQQV [TRIM39] were, in that order, 4.87 ± 0.23 and 4.8 ± 0.097.
For ESRYTSDYFISYGIEHAQCVPPSE [ETS1], the protein stability index came out at 3.22 ± 0.29 (treatment: DMSO) and 3.5 ± 0.53 (treatment: MLN4924 1 uM, 8 h).
The like results for ETGEAARDPSLRPARTVLVGSLSW were, in that order, 3.06 ± 0.32 and 2.88 ± 0.27.
Take ETGKLLWKVRYDTFIVSCKFSPDG [WDR88]: the protein stability index by setting is: (treatment: DMSO) 2.55 ± 0.37; (treatment: MLN4924 1 uM, 8 h) 2.04 ± 0.26.
Regarding ETNEEDKTLQEIYRKYRKLIESEL [FBXO39], the protein stability index is, setting by setting: (treatment: DMSO) 3.02 ± 0.44; (treatment: MLN4924 1 uM, 8 h) 3.4 ± 0.34.
As for EVEGVKNIMTQNVERILARGENLE [VAMP8], the protein stability index runs as follows: (treatment: DMSO) 4.68 ± 0.15; (treatment: MLN4924 1 uM, 8 h) 4.46 ± 0.16.
Consider EVIEKPENDPEWWKCKNARGQVGL [NCK2], for which the protein stability index worked out at 4.28 ± 0.31 (treatment: DMSO) and 4.368 ± 0.038 (treatment: MLN4924 1 uM, 8 h).
Turning to EVIPYTPAMQRYVKRLHEVGRTEP [HMOX1], the protein stability index by setting is: (treatment: DMSO) 3.18 ± 0.21; (treatment: MLN4924 1 uM, 8 h) 3.41 ± 0.25.
For EVNSAEELEGLIADPDEMRMQALL [FEM1C] the same measures were 4.89 ± 0.16 and 5 ± 0.3.
For EVPQLPPRASISHVTCVDQSEHTM [C2CD2L] the same measures were 4.66 ± 0.15 and 4.7 ± 0.25.
For EYLSFFDFSGLTLDGALRTFLKAF [PSD2], the protein stability index by setting is: (treatment: DMSO) 2.44 ± 0.31; (treatment: MLN4924 1 uM, 8 h) 2.01 ± 0.34.
In the case of FAKLEKLTILAKRKSLFDDKAVEI [STX5], the protein stability index by setting is: (treatment: DMSO) 2.47 ± 0.23; (treatment: MLN4924 1 uM, 8 h) 2.48 ± 0.53.
For FDVKNDRYIVNGSHEANKLQDMLD [EIF5] the same measures were 3.97 ± 0.11 and 3.81 ± 0.25.
The like results for FEEVLSSTAHASAQSLAGGSRRTK [TPD52L1] were, in that order, 5.16 ± 0.16 and 5.11 ± 0.24.
For FEQILSLPELKANPFKERICRVFS [CIB1] the same measures were 2.25 ± 0.2 and 2.38 ± 0.16.
Take FFFDRNPGAFGTILTFLRAGKLRL [KCNG1]: the protein stability index reads like this: (treatment: DMSO) 2.48 ± 1.3; (treatment: MLN4924 1 uM, 8 h) 2.07 ± 0.11.
FGERRIPRGRRISVICRSLPEGMG [ALKBH7] came in with a protein stability index (treatment: DMSO) of 2.82 ± 0.29 and a protein stability index (treatment: MLN4924 1 uM, 8 h) of 2.87 ± 0.26.
For FGRKDHLTRHTKKTHSQELMKESL [PLAGL1], the protein stability index (treatment: DMSO) was 3.53 ± 0.2 and the protein stability index (treatment: MLN4924 1 uM, 8 h) is 3.77 ± 0.26.
Consider FIYSLKQMLLNVEANSAKVQEDLE [FSD1], for which the protein stability index was determined as 2.55 ± 0.16 (treatment: DMSO) and 2.38 ± 0.28 (treatment: MLN4924 1 uM, 8 h).
The like results for FKDEWTQLDMFYRNWALKESFIKA [AASDHPPT] were, in that order, 2.02 ± 0.16 and 2.22 ± 0.14.
Consider FKPVVAAQKISKGADPKSVVCAFF [ZC3H15], for which the protein stability index by setting is: (treatment: DMSO) 2.32 ± 1; (treatment: MLN4924 1 uM, 8 h) 2.81 ± 1.5.
As to FLDLMETIDKQREEMAKSSRASAA [LRRC45], the protein stability index is, setting by setting: (treatment: DMSO) 3.71 ± 0.11; (treatment: MLN4924 1 uM, 8 h) 4.08 ± 0.3.
The like results for FLKEYFPIEVVTEGLLNTYQELLG [NLN] were, in that order, 2.44 ± 0.51 and 2.52 ± 0.55.
The like results for FLSGLAFRVFHCTQYVRHSSDPFY [TPH1] were, in that order, 2.67 ± 0.27 and 2.99 ± 0.4.
The like results for FLVMKGQEGAASKVLGRLRALSDT [SLC2A12] were, in that order, 2.27 ± 0.45 and 2.44 ± 0.39.
In the case of FLWGPRALVETSYVKVLHHMVKIS [MAGEA3], the protein stability index was 2.01 ± 0.35 (treatment: DMSO) and 2.64 ± 0.71 (treatment: MLN4924 1 uM, 8 h).
For FMAYEQIKRLVGSDQETLRIHERL [SLC25A25] the same measures were 3.08 ± 0.26 and 2.97 ± 0.42.
The like results for FNEMSAQGLRPRTVSSPIPYTPSP [CCDC6] were, in that order, 4.02 ± 0.3 and 4.12 ± 0.23.
The like results for FPVAEQDKLLKHMIIEHKIVIADV [ZNF277] were, in that order, 2.25 ± 0.18 and 2.4 ± 0.34.
With FQEWEAHRNLSQLPNFAFSVPLAY [TCF25], the protein stability index reads like this: (treatment: DMSO) 2.73 ± 0.58; (treatment: MLN4924 1 uM, 8 h) 2.4 ± 0.25.
For FSPIAIDGMSGLAGVGLSGGAAGA [ELAVL3], the protein stability index is 3.04 ± 0.26 (treatment: DMSO) and 3.2 ± 0.26 (treatment: MLN4924 1 uM, 8 h).
Turning to FSTCGSHLTVVAIFYGSGIFNYMR [OR3A1], the protein stability index (treatment: DMSO) was determined as 2.89 ± 0.56 and the protein stability index (treatment: MLN4924 1 uM, 8 h) is 2.94 ± 0.49.
For FTTFRGTELSFLVTTHQPTNLVLP [EDNRA] the same measures were 2.84 ± 0.74 and 2.29 ± 0.37.
In the case of FTVGSVLGQILVSVAGWSLFSLNV [SLC19A2], the protein stability index amounted to 3.28 ± 0.33 (treatment: DMSO) and 3.1 ± 0.63 (treatment: MLN4924 1 uM, 8 h).
On to FVYENAKEGARNIRTSERVTLIVD [BTBD10], for which the protein stability index reads like this: (treatment: DMSO) 2.55 ± 0.6; (treatment: MLN4924 1 uM, 8 h) 3.06 ± 0.5.
As to FYRLYQDLETHRLPCTSRCPRPCR [SCNN1D], the protein stability index runs as follows: (treatment: DMSO) 2.8 ± 0.26; (treatment: MLN4924 1 uM, 8 h) 2.99 ± 0.35.
For GAAQEALSIQLQPKETQPFPKSEQ [ZNF232] the same measures were 5.17 ± 0.25 and 5.22 ± 0.23.
On to GAFQAQEKELVFDIDMTDYDDVRR [PRIM1], for which the protein stability index by setting is: (treatment: DMSO) 4.72 ± 0.4; (treatment: MLN4924 1 uM, 8 h) 4.71 ± 0.14.
For GAKDSELASQNKPLWQCYLGRFND [PDS5B] the same measures were 2.51 ± 0.37 and 3.25 ± 0.3.
The like results for GAPLIRVHSSPVSSPSVSGPRRLV [SPACA3] were, in that order, 3.24 ± 0.31 and 3.6 ± 0.19.
On to GARPVSSAASVYAGAGGSGSRISV [KRT18], for which the protein stability index came to 3.66 ± 0.34 (treatment: DMSO) and 3.75 ± 0.19 (treatment: MLN4924 1 uM, 8 h).
With GDGKSKKKQAGRPKGSKGKEKDSP [RBBP5], the protein stability index reads like this: (treatment: DMSO) 5.39 ± 0.29; (treatment: MLN4924 1 uM, 8 h) 5.34 ± 0.11.
Sequence GDLGDPFHLGLEDILMEEEEGVVG [TFE3] had a protein stability index (treatment: DMSO) of 5.33 ± 0.34 and a protein stability index (treatment: MLN4924 1 uM, 8 h) of 5.3 ± 0.2.
The like results for GDWAPPPEGGMEQALAGASSGREL [ZNF263] were, in that order, 5.35 ± 0.36 and 5.37 ± 0.16.
For GEKPYLSPDILEEKHCEFKQLALD [ATL3] the same measures were 4.42 ± 0.25 and 4.92 ± 0.12.
Consider GESYESCCPTSREAAVEALELLGA [FEM1A], for which the protein stability index reads like this: (treatment: DMSO) 4.58 ± 0.12; (treatment: MLN4924 1 uM, 8 h) 4.66 ± 0.2.
In the case of GGSTSAHYAVNSQFTMGGPAISMA [CARM1], the protein stability index runs as follows: (treatment: DMSO) 2.94 ± 0.55; (treatment: MLN4924 1 uM, 8 h) 2.94 ± 0.25.
For GHLCAAEVVKIRDSFSNQNTETKD [DLC1] the same measures were 4.18 ± 0.063 and 4.14 ± 0.22.
GIKGLVRDSHGKGIPNAIISVEGI [CPXM2] had a protein stability index (treatment: DMSO) of 2.8 ± 0.067.
Sequence GIRKEDLDIVCERFTTSKLQSFED [MLH1] had a protein stability index (treatment: DMSO) of 3.6 ± 0.22.
For the setting “treatment: MLN4924 1 uM, 8 h”, GIVVESNHDSHMAKERAHSTASHS [PDZK1] came in with a protein stability index of 4.44 ± 0.21.
With GKKDKHSQSPRAAGPREGHSHSHH [PBXIP1], the protein stability index turned out to be 5.32 ± 0.31 (treatment: DMSO) and 5.26 ± 0.1 (treatment: MLN4924 1 uM, 8 h).
Consider GLEGLEDAPPVELQLLHECSPSQM [FANCE], for which the protein stability index (treatment: DMSO) was 4.77 ± 0.19 and the protein stability index (treatment: MLN4924 1 uM, 8 h) was 4.66 ± 0.12.
The like results for GLGGGSSRTSCRLSGGLGAGSCRL [KRT17] were, in that order, 2.41 ± 0.13 and 2.35 ± 0.41.
As for GLGYFSCHSHTVVQDYSYFFFLRM [CCDC3], the protein stability index runs as follows: (treatment: DMSO) 2.66 ± 0.71; (treatment: MLN4924 1 uM, 8 h) 2.3 ± 0.55.
For the sequence GLQAQIASSGLTVEVDAPKSQDLA [KRT18], the protein stability index runs as follows: (treatment: DMSO) 4.77 ± 0.35; (treatment: MLN4924 1 uM, 8 h) 4.94 ± 0.47.
The like results for GLQSPGTLQPPEFLYSHGVPRTLS [TBX5] were, in that order, 3.32 ± 0.27 and 3.49 ± 0.36.
For GLSPRVIRVWFQNKRCKDKKKSIL [ISL2] the same measures were 2.13 ± 0.45 and 2.36 ± 0.085.
The like results for GLVYRIHSVLQGFIPLFQKFRLTG [TMEM40] were, in that order, 3.03 ± 0.56 and 2.73 ± 0.37.
Consider GMLDVADESLTDLEAQPYEAVFLR [P3H4], for which the protein stability index (treatment: DMSO) was 4.02 ± 0.47 and the protein stability index (treatment: MLN4924 1 uM, 8 h) was found to be 4.19 ± 0.21.
The like results for GNAKGKILVLKTDSQDLVASFRVT [RBBP5] were, in that order, 2.17 ± 0.19 and 2.11 ± 0.28.
On to GNKQWWFGGGCDLTPTYLNQEDAI [CPOX], for which the protein stability index turned out to be 3.12 ± 0.19 (treatment: DMSO) and 3.33 ± 0.23 (treatment: MLN4924 1 uM, 8 h).
For the sequence GNRILDEKEQEKMRQDLEEERVAL [PKD2L1], the protein stability index is, setting by setting: (treatment: DMSO) 5.24 ± 0.74; (treatment: MLN4924 1 uM, 8 h) 5.57 ± 0.27.
For GNTAVSVLMLLVALLFTGIAVLGI [SCAMP3] the same measures were 1.99 ± 0.37 and 1.96 ± 0.34.
The like results for GPAASEGAEQPPDLHCVLVTNPHS [GADD45A] were, in that order, 4.97 ± 0.14 and 4.95 ± 0.1.
For GPCEGPSKEDKDLDSSEGSSQEDE [SPANXN3] the same measures were 5.68 ± 0.14 and 5.68 ± 0.14.
With GQENDATSPHFSTRHEGSFQVPVL [CD69], the protein stability index reads like this: (treatment: DMSO) 3.68 ± 0.35; (treatment: MLN4924 1 uM, 8 h) 3.69 ± 0.14.
The like results for GQGAMFRLPTDSHFPYDLHLRSQS [NEUROD6] were, in that order, 3.02 ± 0.3 and 3.11 ± 0.22.
For GRCLEVEMSKDANFGLRLVVQRCS [GALNT9] the same measures were 2.27 ± 0.15 and 2 ± 0.41.
The like results for GRECQPRWETSSWSECSRTCGEGY [ADAMTSL2] were, in that order, 3.78 ± 0.15 and 3.49 ± 0.092.
